Here are results for one molecule from patent US20240101646A1 (VANDERBILT UNIVERSITY, published 2024).

The assay concerns the target T1, SARS-CoV-2 NTD (SARS-CoV-2, UniProt P0DTC2 14-305).
T1 construct: domain: NTD
In words: ELISA, antigen plated at 2 µg/mL (FIG. 12A). For orientation: An ELISA detects its analyte on a solid surface through an enzyme-linked reagent.

B1: antibody 5317-10 (antibody, V domains shown)
VH: EVQLVQSGAEVKKPGESLTISCKASGYRFTSNWITWVRQMPGKGLEWMGRIDPDDPYSNSSPSFQGHATLSLDKAINTAYLHWSSLKASDTAMYYCARVNRVGDGPDFWGQGTLVTVSS
VL: DIVMTQSPLSLPVTPGEPASISCRSSQSLLFGNGYTYLNWYLQKPGQSPQLLIYLGSNRASGVPDRFSVSGSGTDFTLIISRVEAEDVGVYFCMQALQTPWTFGQGTKVEIK
With B1, the binding result is given as “no binding”.
